From patent KR20220147765A (dated 2022)
Numbering of substitutions follows the chain as printed.

B1: RB6 (antibody, V domains shown)
VH: EVQLLESGGGLVQPGGSLRLSCAASGFTFSSYDMSWVRQAPGKGLEWVSGISYSGGSTYYADSVKGRFTISRDNSKNTLYLQMNSLRAEDTAVYYCARDVNFVPLVTFDYWGQGTLVTVSS
VL: QSVLTQPPSASGTPGQRVTLSCTGSSSNIGSNSVTWYQQLPGTAPKLLIYDDNQRPSGVPDRFSGSKSGTSASLAISGLRSEDEADYYCGTWDYSLSAYVFGGGTKLTVL
notes: also called SARS-CoV-2 RBD 특이적 IgG 선별항체 RB6; clone RB6
B2: RD10 (antibody, V domains shown)
VH: EVQLLESGGGLVQPGGSLRLSCAASGFTFSDYAMSWVRQAPGKGLEWVSAIYPGGGSTYYADSVKGRFTISRDNSKNTLYLQMNSLRAEDTAVYYCARNLFGFDYWGQGTLVTVSS
VL: B1 VL with L20I, S33A, T35Y, N53S, Q54N, T91S, Y94D
notes: also called SARS-CoV-2 RBD 특이적 IgG 선별항체 RD10; clone RD10
B3: RD3 (antibody, V domains shown)
VH: EVQLLESGGGLVQPGGSLRLSCAASGFTFSDYAMSWVRQAPGKGLEWVSWIYSGSGNKYYADSVKGRFTISRDNSKNTLYLQMNSLRAEDTAVYYCARFPIARTSNSQSSYDGMDVWGQGTLVTVSS
VL: B1 VL with L20I, T23S, S33A, T35S, D51A, Q54K, T91A, Y94S, S97N
notes: also called SARS-CoV-2 RBD 특이적 IgG 선별항체 RD3; clone RD3

Target: T1, SARS-CoV S 단백질의 RBD 항원 (SARS-CoV, UniProt P59594 306-527)
T1 construct: also called SARS-CoV RBD
Experiment: ELISA, 0.1 μg antigen coated, IgG4

Binder	binding result
B1	binds
B2	binds
B3	binds
